Reference: the supplement of paper PMC10724198
± gives the standard deviation of the averaged measurements.

What was measured:
Saccharomyces cerevisiae [1] = test: protein stability index of tFT-peptide fusion in wild type (PSI (0-1 scale)); higher = more stable (slower turnover); conditions: genetic background: wild type
Procedure: (§1)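 MPS profiling in S. cerevisiae of two library types built from selected 12-aa C-degron peptides (IN1, IN2, LN1, LN3, VN2, R1-R5, W1-W3, Atg1 and Rpa12 C-termini): saturation mutagenesis libraries and C-terminal +1 capping libraries (13 aa). Each peptide is fused to the C-terminus of a sfGFP-mCherry timer, after a GGGS linker. Cells are FACS-sorted into 8 mCherry/sfGFP bins and sequenced. PSI runs from 0 (unstable) to 1 (stable), measured once in wild type and in the das1Δ or doa10Δ background.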

Saccharomyces cerevisiae [2] = test: protein stability index of tFT-peptide fusion in deletion strain of DAS1 (PSI (0-1 scale)); higher = more stable (slower turnover)
Procedure: as §1

Saccharomyces cerevisiae [3] = test: protein stability index of tFT-peptide fusion (C-terminal peptide) (PSI (0-1 scale)); higher = more stable (slower turnover); conditions: temperature: 30 C
Procedure: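 MPS profiling in S. cerevisiae of the yeast C-terminome library: the last 12 aa of each annotated ORF are fused to the C-terminus of a sfGFP-mCherry timer, after a GGGS linker. Cells are FACS-sorted into 8 mCherry/sfGFP bins and deep-sequenced. PSI runs from 0 (unstable) to 1 (stable); wild type and das1Δ backgrounds, two technical replicates each.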

[4] = genetic background: das1 deletion
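For protein stability index of tFT-peptide fusion in deletion strain of DAS1 in this document: PSI is a weighted mean of each variant's read distribution over the sorted stability bins, computed only for variants having over 10 reads in total.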
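For protein stability index of tFT-peptide fusion in wild type in this document: PSI derived as read-weighted mean over the 8 sorting bins, only variants exceeding 10 total reads kept, mCherry placed adjacent to the peptide and sfGFP distal.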

Row | Sequence | protein stability index (Saccharomyces cerevisiae [1]) | protein stability index (Saccharomyces cerevisiae [2]) | protein stability index (Saccharomyces cerevisiae [3]; [4]) | protein stability index (Saccharomyces cerevisiae [3]; genetic background: wild type)
1 | FSMRWTFRQWVN | 0.109 | 0.427 |  | 
2 | FSMRWTFRYFVN | 0.0378 | 0.631 |  | 
3 | FSMRWTFRYGVN | 0.338 | 0.527 |  | 
4 | FSMRWTFRYKVN | 0.0899 | 0.691 |  | 
5 | FSMRWTFTYWVN | 0.0917 | 0.389 |  | 
6 | FSMRWTMRYWVN | 0.0449 | 0.482 |  | 
7 | FSMRWTSRYWVN | 0.105 | 0.598 |  | 
8 | FSMRWTTRYWVN | 0.0528 | 0.566 |  | 
9 | FSMRYTFRYWVN | 0.0639 | 0.648 |  | 
10 | FSRRWTFRYWVN | 0.0509 | 0.636 |  | 
11 | GDKRNHLIKLLN | 0.158 | 0.613 |  | 
12 | GSMRWTFRYWVN | 0.0781 | 0.677 |  | 
13 | HLIQPLPVQFLN | 0.13 | 0.713 |  | 
14 | IDKRNHLIKLLN | 0.143 | 0.584 |  | 
15 | KKHCKGQKQKIN | 0.13 | 0.637 |  | 
16 | KKHEKGQKQKIN | 0.0983 | 0.603 |  | 
17 | KKHKIGQKQKIN | 0.142 | 0.563 |  | 
18 | KKHKKDQKQKIN | 0.0671 | 0.606 |  | 
19 | KKHKKGIKQKIN | 0.0645 | 0.588 |  | 
20 | KKHKKGMKQKIN | 0.0523 | 0.659 |  | 
21 | KKHKKGNKQKIN | 0.0792 | 0.601 |  | 
22 | KKHKKGQCQKIN | 0.16 | 0.801 |  | 
23 | KKHKKGQHQKIN | 0.0824 | 0.579 |  | 
24 | KKHKKGQIQKIN | 0.109 | 0.569 |  | 
25 | KKHKKGQKLKIN | 0.114 | 0.562 |  | 
26 | KKHKKGQKQFIN | 0.209 | 0.558 |  | 
27 | KKHKKGQKQHIN | 0.435 | 0.648 |  | 

Row | Sequence | protein stability index (Saccharomyces cerevisiae [1]) | protein stability index (Saccharomyces cerevisiae [2]) | protein stability index (Saccharomyces cerevisiae [3]; [4]) | protein stability index (Saccharomyces cerevisiae [3]; genetic background: wild type)
28 | KKHKKGQKQKINA | 0.259 | 0.655 |  | 
29 | KKHKKGQKQKIQ | 0.37 | 0.594 |  | 
30 | KKHKKGQKQKSN | 0.553 | 0.615 |  | 
31 | KKHKKGQKQWIN | 0.553 | 0.657 |  | 
32 | KKHKKGQKYKIN | 0.199 | 0.634 |  | 
33 | KKHKKGRKQKIN | 0.0973 | 0.586 |  | 
34 | KKHKKGVKQKIN | 0.128 | 0.743 |  | 
35 | KKLKKGQKQKIN | 0.0797 | 0.594 |  | 
36 | KKNKKGQKQKIN | 0.141 | 0.598 |  | 
37 | KVHKKGQKQKIN | 0.0686 | 0.64 |  | 
38 | KWHKKGQKQKIN | 0.108 | 0.562 |  | 
39 | LGILRQKMNHQN | 0.141 | 0.685 |  | 
40 | LKILKQKMNHQN | 0.222 | 0.68 |  | 
41 | LKILRFKMNHQN | 0.201 | 0.667 |  | 
42 | LKILRPKMNHQN | 0.541 | 0.669 |  | 
43 | LKILRQKMAHQN | 0.178 | 0.673 |  | 
44 | LKILRQKMEHQN | 0.404 | 0.671 |  | 
45 | YLEAFQWLSQYI [SAR1 C-terminal 12 aa] |  |  | 0.7969 ± 0.0076 | 0.7631 ± 0.0025
46 | YLLGIYRDNKKC [ALG5 C-terminal 12 aa] |  |  | 0.727 ± 0.0028 | 0.6693 ± 0.0016
47 | YNINHRKSVNSV [TDA9 C-terminal 12 aa] |  |  | 0.706 ± 0.0094 | 0.6634 ± 0.0026
48 | YNSELVATKDIQ [PNT1 C-terminal 12 aa] |  |  | 0.703 ± 0.012 | 0.7242 ± 0.0066
49 | YSELCIIVGTYY [YDR003W-A C-terminal 12 aa] |  |  | 0.431 ± 0.012 | 0.439 ± 0.036
50 | YSLYRSRSKEAF [SAP190 C-terminal 12 aa] |  |  | 0.714 ± 0.048 | 0.692 ± 0.0071
51 | YVRFYRGKLNNP [YOL036W C-terminal 12 aa] |  |  | 0.704 ± 0.022 | 0.7 ± 0.024
52 | YWALGVALTGSK [YDR417C C-terminal 12 aa] |  |  | 0.6933 ± 0.0046 | 0.693 ± 0.029
53 | YWRKQYPDADLP [YAR028W C-terminal 12 aa] |  |  | 0.714 ± 0.015 | 0.695 ± 0.033
54 | YYNLKNCITSET [YHR050W-A C-terminal 12 aa] |  |  | 0.661 ± 0.007 | 0.6465 ± 0.0017
